Data: paper PMC12162218

Molecular target: Cat1-His6 (CRISPR-associated TIR protein 1, homolog MCI0612855.1)
Test: SEC-MALS; Cat1-His6 with NAD+ (1:10 molar ratio), no cA4; Superose 6 10/300 increase; 25 mM MES pH 6, 200 mM NaCl, 2 mM β-mercaptoethanol, 5 % glycerol

- stoichiometry N: 2
Substance: Cat1-His6 (CRISPR-associated TIR protein 1, homolog MCI0612855.1) (enzyme)
